Biological target: bacterial proteasome activator Bpa, full-length, wild-type (M. tuberculosis H37Rv) (UniProt P9WKX3)
Experiment: MST

“heat shock repressor HspR, wild-type (natural protein)” gave a Kd of 4.3 µM.

— paper PMC11953334, “Substrates bind to residues lining the ring of asymmetrically engaged bacterial proteasome activator Bpa” (Nature Communications, 2025)
